Blank lines part the entries; values can stand above or below the binder they belong to.
Columns and labels:
human HER2 [1] = target: T1, human HER2 (human, UniProt P04626 23-652); test: ELISA, plate coated with 0.1 ug/ml target polypeptide, antibody titrated, absorbance 450 nm
T1 construct: also called His-tagged HER2 protein
Method: (§1) ELISAs were used to determine the binding specificity of the antibodies. […] The antibodies were also analysed for their ability to bind to human EGFR and human HER2 (Sino Biological Inc., China).
(§2) ELISAs were carried out according to standard protocols. Briefly, 96-well plates (Nunc, Denmark) were coated with 0.1 μg/ml of target polypeptide in phosphate-buffered saline (PBS) for 16 h at 4° C. After blocking for 1 h with 1% BSA in Tris buffer saline (TBS) at room temperature, the anti-HER3 antibody was serially diluted with the highest concentration being 10 μg/ml, and added to the plate. Post 1 h incubation at room temperature, plates were washed three times with TBS containing 0.05% Tween 20 (TBS-T) and were then incubated with a HRP-conjugated […] antibody (Life Technologies, Inc., USA) for 1 h at room temperature. After washing, plates were developed with colorimetric detection substrate 3,3′,5,5′-tetramethylbenzidine (Turbo-TMB; Pierce, USA) for 10 min. The reaction was stopped with 2M H₂SO₄, and OD was measured at 450 nm.

human EGFR [2] = target: T2, human EGFR (human, UniProt P00533 25-645); test: as above
T2 construct: also called human HER1 (EGFR); human EGFR-His
Method: as §1, §2

human EGFR [3] = target: T2, human EGFR; test: ELISA, coated human EGFR (HER1), antibody titrated, absorbance 450 nm
human HER2 [4] = target: T1, human HER2; test: ELISA, coated human HER2, antibody titrated, absorbance 450 nm
[5] = target: T3, human HER3 expressed on cells (human, UniProt P21860 20-1342); test: flow cytometry on HEK293 cells overexpressing human HER3, 20 ug/ml antibody, FITC anti-Fc secondary
T3 construct: HEK293 cells transfected with a vector encoding human HER3; Also used here for HER3 on U2OS PathHunter cells and cancer cell lines; also called HEK293 HER3 O/E cells; HER3-expressing cells
Method: The cells were washed thrice with FACS buffer (PBS with 5 mM EDTA and 0.5% BSA) and resuspended in FITC-conjugated anti-FC antibody (Invitrogen, USA) for 40 min at 2-8° C. Cells were washed again and resuspended in 200 μL of FACS flow buffer (PBS with 5 mM EDTA) for flow cytometric analysis using MACSQuant 10 (Miltenyi Biotec, Germany). After acquisition, all raw data were analyzed using Flowlogic software. Cells were gated using forward and side scatter profile percentage of positive cells was determined for native and overexpressing cell populations.

B1: anti-HER3 clone 10D1 IgG1 (antibody)
heavy: not shown
light: DIVMTQSQKFMSTSVGDRVSVTCKASQIVGSNVAWYQQKPGQSPKPLIYSASYRYSGVPDRFTASGSGTDFTLTITNVQSEDLAEYFCQQYSSHPLTFGAGTKLELKRTVAAPSVFIFPPSDEQLKSGTASVVCLLNNFYPREAKVQWKVDNALQSGNSQESVTEQDSKDSTYSLSSTLTLSKADYEKHKVYACEVTHQGLSSPVTKSFNRGEC
notes: also called 10D1P; 10D1 (parental)
binding result (human HER2 [1]): no binding (tested: about 2e-7 M (log -6.7))
binding result (human EGFR [2]): no binding (tested: about 2e-7 M (log -6.7))

B2: 10D1F.FcA (antibody, human IgG1, kappa)
heavy: not shown
light: DIQMTQSPSSVSASVGDRVTITCKASQIVGSNVAWYQQKPGKAPEPLIYSASYLYSGVPSRFSGSGSGTDFTLTISSLQPEDFATYYCQQYSSHPLTFGQGTKLEIKRTVAAPSVFIFPPSDEQLKSGTASVVCLLNNFYPREAKVQWKVDNALQSGNSQESVTEQDSKDSTYSLSSTLTLSKADYEKHKVYACEVTHQGLSSPVTKSFNRGEC
notes: the full chains 206/207 are used here; also called 10D1F.A; anti-HER3 clone 10D1_c89 IgG1
binding result (human EGFR [3]): no binding (tested: last point at about log(M) -8.1)
binding result (human HER2 [4]): no binding (tested: last point at about log(M) -8.1)

% Parent (HER3 Positive) [5]: 41.9%
B3: anti-HER3 clone 10D1_c90 IgG1 (antibody, V domains shown)
VH: QVQLQESGPGLVKPSQTLFLTCTVSGYSITSGYSWHWIRQHPGKGLEWIGSIRYSGGTDYNPSLKSLVTISVDTSKNQFSLKLSSVTAADTAVYYCARMTTAPWYPFDYWGQGTTVTVSS
VL: DIQMTQSPSSVSASVGDRVTFTCKASQIVGSNVAWYQQKPGKAPEPLIYSASYLYSSVPSRFSGSGSGTEFTMTISSLEPEDFATYYCQQYTTHPLTFGPGTKVEIKR
notes: IgG1/kappa

From patent US20210155712A1 (HUMMINGBIRD BIOSCIENCE HOLDINGS PTE, published 2021)
